# Reference: patent US20210371536A1 (SEOUL NATIONAL UNIVERSITY R AND DB FOUNDATION, published 2021)
# T1: cynomolgus monkey PDGFR-β (Fc chimera) (cynomolgus monkey)
# T1 construct: not shown: human Fc (hFc) and its junction to the receptor part
# T1 chain: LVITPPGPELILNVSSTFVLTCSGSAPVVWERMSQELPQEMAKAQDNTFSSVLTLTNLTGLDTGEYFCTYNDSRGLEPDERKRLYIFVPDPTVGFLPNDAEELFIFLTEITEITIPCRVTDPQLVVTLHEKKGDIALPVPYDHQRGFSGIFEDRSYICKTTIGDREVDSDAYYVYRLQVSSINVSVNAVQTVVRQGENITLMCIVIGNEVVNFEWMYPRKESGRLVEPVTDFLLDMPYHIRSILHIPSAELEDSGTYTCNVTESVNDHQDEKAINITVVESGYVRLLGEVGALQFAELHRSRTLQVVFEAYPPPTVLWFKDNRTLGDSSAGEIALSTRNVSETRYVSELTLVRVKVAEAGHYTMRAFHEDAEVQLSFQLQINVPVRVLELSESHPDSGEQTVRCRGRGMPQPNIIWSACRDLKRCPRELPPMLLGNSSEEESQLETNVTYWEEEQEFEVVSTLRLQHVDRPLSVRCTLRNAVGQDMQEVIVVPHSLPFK
# T2: Sus scrofa PDGFR-β-Fc chimera (Sus scrofa, UniProt Q6QNF3 33-530 (dog entry))
# T2 construct: also called Sus crowfa PDGFR-β; not shown: human Fc (hFc) and its junction to the receptor part
# T2 chain: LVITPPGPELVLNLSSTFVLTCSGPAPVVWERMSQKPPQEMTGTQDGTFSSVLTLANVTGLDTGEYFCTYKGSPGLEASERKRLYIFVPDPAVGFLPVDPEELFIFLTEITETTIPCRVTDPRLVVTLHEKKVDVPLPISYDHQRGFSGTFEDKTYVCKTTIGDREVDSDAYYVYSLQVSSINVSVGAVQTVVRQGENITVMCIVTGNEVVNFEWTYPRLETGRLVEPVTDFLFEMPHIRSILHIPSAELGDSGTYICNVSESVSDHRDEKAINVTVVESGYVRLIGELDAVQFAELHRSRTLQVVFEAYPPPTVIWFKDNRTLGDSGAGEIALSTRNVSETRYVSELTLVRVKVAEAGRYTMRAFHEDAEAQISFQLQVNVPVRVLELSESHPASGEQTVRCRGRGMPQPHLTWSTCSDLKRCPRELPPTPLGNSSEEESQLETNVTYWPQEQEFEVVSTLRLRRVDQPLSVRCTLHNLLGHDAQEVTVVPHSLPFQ
# B1: PRb-CN26 x cotinine scFv-Cκ-scFv fusion protein (bispecific antibody) (bispecific antibody)
# chain: LTQPSSVSANPGETVKITCSGGGSYAGSYYYGWYQQKSPGSAPVTVIYDNTNRPSNIPSRFSGSLSGSTDTLTITGVQAEDEAVYFCGGYDGISDTGIFGAGTTLTVLGQSSRSSGGGGSSGGGGSAVTLDESGGGLQTPGGGLSLVCKASGFTFSDRGIHWVRQAPGKGLEWVAGIGNTGSYTAYAPAVKGRATISRDNGQSTVRLQLNNLRAEDTATYYCAKRGFMDAGGIDAWGHGTEVIVSSTSGGGGSGGGGSGGGGSRTVAAPSVFIFPPSDEQLKSGTASVVCLLNNFYPREAKVQWKVDNALQSGNSQESVTEQDSKDSTYSLSSTLTLSKADYEKHKVYACEVTHQGLSLPVTKSFNRGESGGGGSGGGGSGGGGSDIQMTQSPSSLSASVGDRVTITCQSSQSPYSNEWLSWYQQKPGKAPKLLIYRISTLASGVPSRFSGSRSGTDFTLTISSLQPEDFATYYCAGGYNFGLFLFGQGTKVEIKGQSSRSSGGGGSSGGGGSEVQLVESGGGLVQPGGSLRLSCAASGHLRRRDWMNWVRQAPGKGLEWVAAIGRSGDTYYATWAKGRFTISADTSKNTAYLQMNSLRAEDTAVYYCSRIPYFGWNNGDIWGQGTLVTVSS
# B2: PRb-CC01 x cotinine scFv-Cκ-scFv fusion protein (bispecific antibody) (bispecific antibody)
# chain: LTQPSSVSANLGGTVKITCSGGGSYYGWYQQKSPGSAPVTLIYYNDKRPSDIPSRFSGSKSGSTGTLTITGVQAEDEAVYFCGAWDNSAGYAGFGAGTTLTVLGQSSRSSGGGGSSGGGGSAVTLDESGGGLQTPGGALSLVCKGSGFTFSSYNMGWVRQAPGKGLEFVAGISAADNSTAYGAAVDGRATISRDNGQSTVRLQLNNLRAEDTATYFCIRGGGSIDAWGHGTEVIVSSGGGGSGGGGSGGGGSRTVAAPSVFIFPPSDEQLKSGTASVVCLLNNFYPREAKVQWKVDNALQSGNSQESVTEQDSKDSTYSLSSTLTLSKADYEKHKVYACEVTHQGLSLPVTKSFNRGESGGGGSGGGGSGGGGSDIQMTQSPSSLSASVGDRVTITCQSSQSPYSNEWLSWYQQKPGKAPKLLIYRISTLASGVPSRFSGSRSGTDFTLTISSLQPEDFATYYCAGGYNFGLFLFGQGTKVEIKGQSSRSSGGGGSSGGGGSEVQLVESGGGLVQPGGSLRLSCAASGHLRRRDWMNWVRQAPGKGLEWVAAIGRSGDTYYATWAKGRFTISADTSKNTAYLQMNSLRAEDTAVYYCSRIPYFGWNNGDIWGQGTLVTVSS
# B3: PRb-CN16 x cotinine scFv-Cκ-scFv fusion protein (bispecific antibody) (bispecific antibody)
# chain: LTQPSSVSANPGETVKITCSGSSSSYGWYQQKSPGSAPVTLIYENNQRPSNIPSRFSGSKSGSTGTLTITGVQAEDEAVYYCGNADRSNSAGTFGAGTTLTVLGQSSRSSGGGGSSGGGGSAVTLDESGGGLQTPGTALSLVCKASGFTFSSFNMAWVRQAPGKGLEFVGEISNTAGSTFYAPAVKGRATISRDNGQSTVRLQLNNLRAEDTAIYYCAKAAGTCYSHSCTGYIDAWGHGTEVIVSSTSGGGGSGGGGSGGGGSRTVAAPSVFIFPPSDEQLKSGTASVVCLLNNFYPREAKVQWKVDNALQSGNSQESVTEQDSKDSTYSLSSTLTLSKADYEKHKVYACEVTHQGLSLPVTKSFNRGESGGGGSGGGGSGGGGSDIQMTQSPSSLSASVGDRVTITCQSSQSPYSNEWLSWYQQKPGKAPKLLIYRISTLASGVPSRFSGSRSGTDFTLTISSLQPEDFATYYCAGGYNFGLFLFGQGTKVEIKGQSSRSSGGGGSSGGGGSEVQLVESGGGLVQPGGSLRLSCAASGHLRRRDWMNWVRQAPGKGLEWVAAIGRSGDTYYATWAKGRFTISADTSKNTAYLQMNSLRAEDTAVYYCSRIPYFGWNNGDIWGQGTLVTVSS
# notes: also called anti-hPDGFR-β x cotinine scFv-Cκ-scFv
# B4: PRb-CC02 x cotinine scFv-Cκ-scFv fusion protein (bispecific antibody) (bispecific antibody)
# chain: LTQPSSVSANPGETVKITCSGGGGSYGWYQQKSPGSAPVTVIYYNDKRPSDIPSRFSGSKSGSTGTLTITGVQAEDEAVYFCGSYNSSDSLFGAGTTLTVLGQSSRSSGGGGSSGGGGSAVTLDESGGGLQTPGGALSLVCKASGFTFSSYGMFWVRQAPGKGLEWVAGIDTGSGTNYGSAVKGRATISRDNGQSTVRLQLNNLRAEDTGTYFCTRGYAGTIDAWGHGTEVIVSSTSGGGGSGGGGSGGGGSRTVAAPSVFIFPPSDEQLKSGTASVVCLLNNFYPREAKVQWKVDNALQSGNSQESVTEQDSKDSTYSLSSTLTLSKADYEKHKVYACEVTHQGLSLPVTKSFNRGESGGGGSGGGGSGGGGSDIQMTQSPSSLSASVGDRVTITCQSSQSPYSNEWLSWYQQKPGKAPKLLIYRISTLASGVPSRFSGSRSGTDFTLTISSLQPEDFATYYCAGGYNFGLFLFGQGTKVEIKGQSSRSSGGGGSSGGGGSEVQLVESGGGLVQPGGSLRLSCAASGHLRRRDWMNWVRQAPGKGLEWVAAIGRSGDTYYATWAKGRFTISADTSKNTAYLQMNSLRAEDTAVYYCSRIPYFGWNNGDIWGQGTLVTVSS
# B5: PRb-CN01 x cotinine scFv-Cκ-scFv fusion protein (bispecific antibody) (bispecific antibody)
# chain: LTQPSSVSANPGETVKITCSGGSGSYGWFQQKSPGSAPVTVIYSNNQRPSDIPSRFSGSKSGSTNTLTITGVQAEDEAIYYCGTRDSSYVGIFGAGTTLTVLGQSSRSSGGGGSSGGGGSAVTLDESGGGLQTPGGALSLVCKASGFTFSDRAMHWVRQAPGKGLEWVGLITNTGGSTNYGAAVKGRATISRDNGQSTVRLQLNNLRAEDTGTYYCTRGVGSWAHGGRIDAWGHGTEVIVSSGGGGSGGGGSGGGGSRTVAAPSVFIFPPSDEQLKSGTASVVCLLNNFYPREAKVQWKVDNALQSGNSQESVTEQDSKDSTYSLSSTLTLSKADYEKHKVYACEVTHQGLSLPVTKSFNRGESGGGGSGGGGSGGGGSDIQMTQSPSSLSASVGDRVTITCQSSQSPYSNEWLSWYQQKPGKAPKLLIYRISTLASGVPSRFSGSRSGTDFTLTISSLQPEDFATYYCAGGYNFGLFLFGQGTKVEIKGQSSRSSGGGGSSGGGGSEVQLVESGGGLVQPGGSLRLSCAASGHLRRRDWMNWVRQAPGKGLEWVAAIGRSGDTYYATWAKGRFTISADTSKNTAYLQMNSLRAEDTAVYYCSRIPYFGWNNGDIWGQGTLVTVSS
# B6: PRb-CC03 x cotinine scFv-Cκ-scFv fusion protein (bispecific antibody) (bispecific antibody)
# chain: LTQPSSVSANPGETVKITCSGGTYNYGWYQQKSPGSAPVTVIYWNDKRPSDIPSRFSGSKSGSTGTLTITGVQAEDEAVYYCGSSDSSGLIFGAGTTLTVLGQSSRSSGGGGSSGGGGSAVTLDESGGGLQTPGGTLSLVCKASGFTFSSYAMGWVRQAPGKGLEWVAGIDTAGGTAYGPAVKGRATISRDNGQSTVRLQLNNLRAEDTATYYCTRSSYIDTWGHGTEVIVSSTSGGGGSGGGGSGGGGSRTVAAPSVFIFPPSDEQLKSGTASVVCLLNNFYPREAKVQWKVDNALQSGNSQESVTEQDSKDSTYSLSSTLTLSKADYEKHKVYACEVTHQGLSLPVTKSFNRGESGGGGSGGGGSGGGGSDIQMTQSPSSLSASVGDRVTITCQSSQSPYSNEWLSWYQQKPGKAPKLLIYRISTLASGVPSRFSGSRSGTDFTLTISSLQPEDFATYYCAGGYNFGLFLFGQGTKVEIKGQSSRSSGGGGSSGGGGSEVQLVESGGGLVQPGGSLRLSCAASGHLRRRDWMNWVRQAPGKGLEWVAAIGRSGDTYYATWAKGRFTISADTSKNTAYLQMNSLRAEDTAVYYCSRIPYFGWNNGDIWGQGTLVTVSS
# Experiments:
# [1] = target: T1, cynomolgus monkey PDGFR-β (Fc chimera); test: cross-species ELISA on coated antigen, 100 nM bispecific, HRP-anti-human Cκ detection
# [2] = target: T2, Sus scrofa PDGFR-β-Fc chimera; test: as above
# [3] = target: hPDGFR-β on human pericyte cells (human, UniProt P09619 33-1106); test: cell-based or functional assay
# Sequence of hPDGFR-β on human pericyte cells (P09619 33-1106): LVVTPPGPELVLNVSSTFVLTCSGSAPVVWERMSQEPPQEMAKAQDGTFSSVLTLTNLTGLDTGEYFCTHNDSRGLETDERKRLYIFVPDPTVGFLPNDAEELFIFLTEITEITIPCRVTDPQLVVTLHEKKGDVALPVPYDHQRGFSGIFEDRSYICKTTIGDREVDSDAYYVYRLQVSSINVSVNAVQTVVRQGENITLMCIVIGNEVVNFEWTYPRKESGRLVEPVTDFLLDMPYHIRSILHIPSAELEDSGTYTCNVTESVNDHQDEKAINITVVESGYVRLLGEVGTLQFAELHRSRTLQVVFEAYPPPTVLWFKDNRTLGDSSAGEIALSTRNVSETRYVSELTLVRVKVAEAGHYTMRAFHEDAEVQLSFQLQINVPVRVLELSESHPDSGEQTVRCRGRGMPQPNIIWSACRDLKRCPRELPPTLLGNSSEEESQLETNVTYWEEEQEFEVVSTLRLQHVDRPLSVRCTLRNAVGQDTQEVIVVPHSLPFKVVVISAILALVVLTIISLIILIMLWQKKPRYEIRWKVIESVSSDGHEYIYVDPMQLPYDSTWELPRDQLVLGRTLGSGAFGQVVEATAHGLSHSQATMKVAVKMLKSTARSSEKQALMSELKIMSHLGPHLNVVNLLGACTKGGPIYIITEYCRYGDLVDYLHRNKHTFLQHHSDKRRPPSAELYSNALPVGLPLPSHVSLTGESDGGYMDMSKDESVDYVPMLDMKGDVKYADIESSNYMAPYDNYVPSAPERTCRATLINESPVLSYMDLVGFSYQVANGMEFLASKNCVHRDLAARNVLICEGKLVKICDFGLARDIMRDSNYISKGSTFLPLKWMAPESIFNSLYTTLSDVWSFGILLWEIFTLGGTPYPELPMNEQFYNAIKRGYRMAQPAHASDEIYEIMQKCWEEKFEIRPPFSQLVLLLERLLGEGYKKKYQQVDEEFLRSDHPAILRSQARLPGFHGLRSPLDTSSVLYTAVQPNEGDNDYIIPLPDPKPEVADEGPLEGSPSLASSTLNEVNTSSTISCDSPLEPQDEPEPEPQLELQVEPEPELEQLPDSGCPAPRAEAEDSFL
# mPDGFR-β on NIH3T3 cells = mPDGFR-β on NIH3T3 cells (mouse, UniProt P05622 32-1098); test: cell-based or functional assay
# Sequence of mPDGFR-β on NIH3T3 cells (P05622 32-1098): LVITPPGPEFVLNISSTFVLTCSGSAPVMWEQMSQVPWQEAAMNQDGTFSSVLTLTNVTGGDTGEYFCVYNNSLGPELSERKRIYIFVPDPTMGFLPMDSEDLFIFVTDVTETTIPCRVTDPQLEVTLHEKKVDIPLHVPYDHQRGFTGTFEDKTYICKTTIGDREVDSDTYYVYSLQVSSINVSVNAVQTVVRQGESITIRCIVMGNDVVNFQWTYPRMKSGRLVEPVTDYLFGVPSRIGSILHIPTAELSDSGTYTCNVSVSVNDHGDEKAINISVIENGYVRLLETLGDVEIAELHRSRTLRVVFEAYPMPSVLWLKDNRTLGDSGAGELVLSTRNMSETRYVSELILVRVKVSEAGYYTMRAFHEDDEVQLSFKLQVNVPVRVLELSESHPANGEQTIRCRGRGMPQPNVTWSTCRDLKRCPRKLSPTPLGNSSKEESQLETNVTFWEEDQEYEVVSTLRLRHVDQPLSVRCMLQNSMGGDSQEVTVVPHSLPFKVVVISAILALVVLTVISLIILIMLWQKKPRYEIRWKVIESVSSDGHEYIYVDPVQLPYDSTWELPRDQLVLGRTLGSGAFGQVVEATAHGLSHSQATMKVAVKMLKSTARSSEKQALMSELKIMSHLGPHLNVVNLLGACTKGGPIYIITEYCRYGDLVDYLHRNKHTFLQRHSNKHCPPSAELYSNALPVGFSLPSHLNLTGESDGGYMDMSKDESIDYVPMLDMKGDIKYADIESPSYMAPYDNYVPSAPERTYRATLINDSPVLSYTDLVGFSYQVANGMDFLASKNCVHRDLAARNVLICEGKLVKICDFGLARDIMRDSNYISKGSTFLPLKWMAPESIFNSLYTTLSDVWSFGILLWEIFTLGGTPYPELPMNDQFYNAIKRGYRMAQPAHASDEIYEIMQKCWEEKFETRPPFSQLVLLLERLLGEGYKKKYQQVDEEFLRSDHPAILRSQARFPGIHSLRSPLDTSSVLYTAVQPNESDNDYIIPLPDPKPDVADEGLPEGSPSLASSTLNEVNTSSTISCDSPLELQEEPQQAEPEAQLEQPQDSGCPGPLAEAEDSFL
Binder,binding result [1],binding result [2],"IC50 (nM) of relative cell viability (cellular ATP), human pericyte cells, bispecific complexed with cot-duo, with hPDGF-BB [3] [nM]","IC50 (nM) of relative cell viability (cellular ATP), human pericyte cells, bispecific complexed with cot-duo, without hPDGF-BB [3] [nM]","IC50 (nM) of relative cell viability (cellular ATP), NIH3T3 cells, bispecific complexed with cot-duo, with mPDGF-BB (mPDGFR-β on NIH3T3 cells) [nM]","IC50 (nM) of relative cell viability (cellular ATP), NIH3T3 cells, bispecific complexed with cot-duo, without mPDGF-BB (mPDGFR-β on NIH3T3 cells) [nM]","IC50 (nM) of relative cell viability (cellular ATP), NIH3T3 cells, bispecific complexed with cot-duo-cot, with mPDGF-BB (mPDGFR-β on NIH3T3 cells) [nM]","IC50 (nM) of relative cell viability (cellular ATP), NIH3T3 cells, bispecific complexed with cot-duo-cot, without mPDGF-BB (mPDGFR-β on NIH3T3 cells) [nM]"
B1,binds,binds,0.87,0.9,,,,
B2,,,,,27.1,25,67.2,87.6
B3,binds,binds,1.82,2.39,,,,
B4,,,,,20.6,20.1,89,125
B5,,,,,9.7,8.3,30.5,20.1
B6,,,,,20.7,27.3,50.2,67.3
